We go through two molecules from patent US20260083826A1, “NEW SYNTHETIC DRUGS FOR TREATING ALZHEIMER'S DISEASE” (OKINAWA INSTITUTE OF SCIENCE AND TECHNOLOGY SCHOOL …, priority 2022, published 2026).

In data set [1] the target is Taxol-stabilized microtubules. The data set can be described thus: MT spin-down (co-sedimentation) assay with PHDP5 (1 mM) added as competitor to MT and dynamin 1.
Data set [2] deals with microtubules in mouse calyceal terminals (endogenous, assembled after h-tau loading), Q9ERD7.
Sequence of microtubules in mouse calyceal terminals (endogenous, assembled after h-tau loading), Q9ERD7 (Q9ERD7 whole entry, looked up): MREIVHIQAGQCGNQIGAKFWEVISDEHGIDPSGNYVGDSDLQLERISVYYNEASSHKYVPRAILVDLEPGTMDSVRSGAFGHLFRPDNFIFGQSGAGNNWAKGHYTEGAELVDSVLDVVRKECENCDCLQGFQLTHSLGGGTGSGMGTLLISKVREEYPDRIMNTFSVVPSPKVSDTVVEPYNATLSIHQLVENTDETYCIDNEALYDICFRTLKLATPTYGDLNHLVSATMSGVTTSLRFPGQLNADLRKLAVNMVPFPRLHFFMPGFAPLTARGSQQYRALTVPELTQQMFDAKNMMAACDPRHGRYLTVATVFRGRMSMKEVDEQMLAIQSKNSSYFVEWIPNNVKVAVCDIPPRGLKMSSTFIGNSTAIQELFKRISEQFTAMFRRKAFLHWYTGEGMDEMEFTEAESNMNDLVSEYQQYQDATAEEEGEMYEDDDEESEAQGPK

As to “His-tagged human dynamin 1 (from UniProt Q05193 1-864)”, in data set [1], the % of dynamin 1 in precipitates (ppts) relative to total amount was 6.3%.

B1: dynamin 1 in mouse calyx of Held presynaptic terminals (endogenous) (protein)
chain: MGNRGMEDLIPLVNRLQDAFSAIGQNADLDLPQIAVVGGQSAGKSSVLENFVGRDFLPRGSGIVTRRPLVLQLVNSTTEYAEFLHCKGKKFTDFEEVRLEIEAETDRVTGTNKGISPVPINLRVYSPHVLNLTLVDLPGMTKVPVGDQPPDIEFQIRDMLMQFVTKENCLILAVSPANSDLANSDALKIAKEVDPQGQRTIGVITKLDLMDEGTDARDVLENKLLPLRRGYIGVVNRSQKDIDGKKDITAALAAERKFFLSHPSYRHLADRMGTPYLQKVLNQQLTNHIRDTLPGLRNKLQSQLLSIEKEVDEYKNFRPDDPARKTKALLQMVQQFAVDFEKRIEGSGDQIDTYELSGGARINRIFHERFPFELVKMEFDEKELRREISYAIKNIHGIRTGLFTPDLAFEATVKKQVQKLKEPSIKCVDMVVSELTSTIRKCSEKLQQYPRLREEMERIVTTHIREREGRTKEQVMLLIDIELAYMNTNHEDFIGFANAQQRSNQMNKKKTSGNQDEILVIRKGWLTINNIGIMKGGSKEYWFVLTAENLSWYKDDEEKEKKYMLSVDNLKLRDVEKGFMSSKHIFALFNTEQRNVYKDYRQLELACETQEEVDSWKASFLRAGVYPERVGDKEKASETEENGSDSFMHSMDPQLERQVETIRNLVDSYMAIVNKTVRDLMPKTIMHLMINNTKEFIFSELLANLYSCGDQNTLMEESAEQAQRRDEMLRMYHALKEALSIIGDINTTTVSTPMPPPVDDSWLQVQSVPAGRRSPTSSPTPQRRAPAVPPARPGSRGPAPGPPPAGSALGGAPPVPSRPGASPDPFGPPPQVPSRPNRAPPGVPRITISDP
Take B1: in data set [2], the “dynamin immunofluorescence in permeabilised h-tau-loaded terminals against terminals without h-tau loading” value is “a 2.6-fold increase in dynamin signal”.
